Experimental findings from patent US20230348578A1, “CONFORMATION-SPECIFIC ANTIBODIES THAT BIND TAU PROTEIN AND USES THEREOF” (Beth Israel Deaconess Medical Center, Inc., priority 2020, published 2023) are described below.

Substitutions are numbered along the chain they refer to.

The target in assay [1] is cis pT231-tau (P-tau peptide, pure cis or cis-locked). The experiment in a line: Biacore assay of binding affinity of humanized cis mAb variants. From the text:
We next started to characterize and select lead humanized mAbs. We expressed and purified humanized mAb variants using a CHO expression system. We transfected over 45 plasmid DNA pairs of heavy and light chain cDNAs into CHO cells to express over 225 humanized cis mAb variants in various combinations. To evaluate the target binding specificity and affinity of our mouse mAbs, we established a simple and quantitative ELISA to screen the clones using a wild-type P-tau peptide and its pure cis or cis-locked, and pure trans counterparts and determined the binding affinity for selected clones using Biacore assays. We screened over 200 humanized cis mAb variants. […] Furthermore, one-tenth of humanized cis mAb variants were also able to recognize cis P-tau in human AD and TBI brains based on immunostaining analysis.
(§1) The binding affinity of selected humanized antibody clones was determined by Biacore assay using a wild-type P-tau peptide and its pure cis or cis-locked, and pure trans counterparts. The […] of the selected humanized cis mAb variants was determined by assessing their ability to eliminate cis P-tau in stressed neurons in cell cultures. Functional restoration of selected clones was determined by their ability to restore risk-taking behavior after 3-hit or 7-hit repetitive TBI in mice, as assayed by elevated plus maze.
(In general: In SPR one partner is held on a chip, and binding of the other changes the refractive index at the surface.)

The subject of assay [2] is mice (C57/BL6) after 3-hit repetitive TBI. As to the kind of experiment: 3-hit repetitive mild TBI in mice, elevated plus maze. Format: in vivo. The note with it: risk-taking behavior, HT13 chimera control = 1.0. The method, then:
as §1
(§2) An initial sign of brain dysfunction following traumatic brain injury (TBI) is an increase in risk-taking behavior. To determine the therapeutic effect of the herein described cis pT231-tau monoclonal antibodies in restoring brain function 11-week old mice (C57/BL6) mice were subjected to elevated plus maze behavioral assays designed to evaluate risk-taking behavior following repetitive mild TBIs. The behavioral assays were performed as previously described in Walf, Nature Protocols 2(2): 322-328, 2007 (FIG. 7). […] All other mice sustained mild TBI (rmTB) either three times, once a day for three consecutive days, or seven times once a day for five consecutive days and two consecutive times on days 8 and 9. In the 3-hit TBI experiment (FIG. 8A), nine groups of mice received three doses (250 ug/mouse) via intraperitoneal injection of either IgG control (n=10 mice) or one of the following humanized cis pT231-tau monoclonal antibody variants C113 (n=5 mice), HT1 (n=10 mice), HT2 (n=10), HT3 (n=10), HT8 (n=5), HT10 (n=10), HT13 (n=15), HT18 (n=4). Treatment with IgG or humanized cis-pT231-tau monoclonal antibody was administered on Days 1, 2 and 7. Behavioral evaluation was performed on Day 13. In the 7-hit TBI experiment (FIG. 8B), one group sustained TBI only (n=10 mice). The other groups received 8 doses (250 ug/mouse) via intraperitoneal injection of either IgG control (n=10 mice) or one of the following humanized cis pT231-tau monoclonal antibody variants C113 (n=10 mice), HT2 (n=10), HT3 (n=10), HT8 (n=10), HT10 (n=10), HT13 (n=10), HT18/HC2 (n=10). Treatment with IgG or humanized cis-pT231-tau monoclonal antibody was administered on Days 1, 2, 3, 5, 8, 10, 13 and 20. Behavioral evaluation was performed on Day 27. The elevated plus maze was used to assess anxiety/risk-taking behavior and carried out as described in Kondo et al, Nature 523, 431-436, 2015. Briefly, the elevated plus maze consists of two white open arms (30×5 cm) and two white closed arms of the same size with 15-cm-high walls, extended out opposite from each other from a central platform (decision zone) to create a plus shape. The entire apparatus is raised 38 cm above the floor (Lafayette Instruments). Mice are placed on the center platform of the maze, facing a closed arm, and allowed to explore the apparatus for 5 min. The maze is cleaned between subjects with a weak ethanol solution and dried. A computer-assisted video tracking system (Noldus Ethovision) recorded the total time spent in the center platform (decision zone), and the two closed or ‘safe’ arms and the two open or ‘aversive’ arms. Mice with lower levels of anxiety/risk-taking behavior spend less time in the open arms.

The target of assay [3] is T1, cis P-tau (Homo sapiens, UniProt P10636). As to the kind of experiment: Elimination of cis P-tau in cultured neurons stressed by hypoxia. It counts as cell-based. Details: endogenous in cells. Particulars: 2.5 μg/ml, 5 μg/ml and 10 μg/ml. The method, then:
as §1
Cultured neurons were subjected to neuron stress by hypoxia in the presence or absence of different concentration of humanized antibody variants, followed by immunoblotting analysis to analyze cis P-tau levels in the stressed neurons, the results of which are provided in FIGS. 2-4. FIG. 2 is an immunostaining image showing the ability of humanized cis pT231-tau monoclonal antibody variants to eliminate cis P-tau in neurons under hypoxic conditions. Cis P-tau levels are reported in red and blue reports nuclear staining (Hoechst) to represent all neurons in the experiment. […] Cis P-tau levels are reported in red and blue reports nuclear staining (Hoechst) to represent all neurons in the experiment. […] IgG is a negative control. The cis-pTau monoclonal antibody C113 serves as a positive control.

The subject of assay [4] is mice (C57/BL6) after 7-hit repetitive TBI. The experiment in a line: 7-hit repetitive mild TBI in mice, elevated plus maze. Particulars: risk-taking behavior, HT13 chimera control = 1.0. Format: in vivo. Here is the method: as §1, §2
The test system of assay [5] is BCAS (bilateral common carotid artery stenosis) mice. As to the kind of experiment: 3 month treatment of BCAS mice with humanized cis mAbs (Y maze, NOR, Barnes maze). Format: in vivo. Here is the method:
BCAS mice were treated with novel humanized cis mAbs (HT10 and HT18), murine cis mAb C113 (as described in, e.g., U.S. Pat. No. 9,688,747, positive control), mouse-human chimeric HT13 (positive control), or IgG (negative control). Behavioral changes were assay by Y-maze and novel object recognition (NOR) at 1 month after BCAS (FIG. 92A); by Y-maze and NOR at 3 months after BCAS (FIG. 92B); and by Barnes maze at 3 months after BCAS (FIG. 92C). *, p<0.05; **, p<0.01; ***, p<0.001; ****, p<0.0001.
As described above in Examples 1-4, we developed 225 humanized cis P-tau mAb variants and identified 10 top fully humanized cis mAb variants (HT1-4, HT6-10 and HT18) with the expected specificity and potency. […] In this experiment, we performed a 3 month treatment of BCAS (bilateral common carotid artery stenosis) mice with two humanized cis mAb variants, HT10 and HT18, along with murine cis mAb C113 (as described in, e.g., U.S. Pat. No. 9,688,747) and mouse-human chimeric HT13 as positive controls.

Assay [6] addresses T1, cis P-tau. As to the kind of experiment: Immunoblotting of CSF of live TBI patients. Format: binding. Details: The recognition of cis P-tau in the CSF of live TBI patients; from tissue; host or cells: cerebrospinal fluid of live traumatic brain injury patients. The note with it: relative to control CSF samples. From the text:
CSF pT231-tau is an early biomarker of traumatic brain injury (TBI). The recognition of cis P-tau in the CSF of live TBI patients by the humanized cis pT231-tau monoclonal antibody variants evaluated immunoblotting analyses using different humanized antibody variants.

Setting [7] is: 3 months after BCAS surgery, Barnes maze.

T1 sequence (P10636 1-441 isoform P10636-8): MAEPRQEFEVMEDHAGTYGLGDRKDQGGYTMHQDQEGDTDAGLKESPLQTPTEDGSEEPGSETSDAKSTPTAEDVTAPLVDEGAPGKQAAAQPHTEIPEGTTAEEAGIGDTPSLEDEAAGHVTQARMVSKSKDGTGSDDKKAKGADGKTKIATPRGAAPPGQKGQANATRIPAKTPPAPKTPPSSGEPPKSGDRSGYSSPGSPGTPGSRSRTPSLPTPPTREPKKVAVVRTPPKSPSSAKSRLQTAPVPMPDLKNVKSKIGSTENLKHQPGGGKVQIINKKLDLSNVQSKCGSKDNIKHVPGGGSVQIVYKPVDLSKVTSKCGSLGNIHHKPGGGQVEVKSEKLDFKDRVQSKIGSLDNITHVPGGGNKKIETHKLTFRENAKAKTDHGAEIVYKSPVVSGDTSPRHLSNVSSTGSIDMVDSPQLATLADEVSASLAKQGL

B1: HT1: humanized cis-pThr231-tau mAb; heavy chain variable domain SEQ ID NO: 25, light chain variable domain SEQ ID NO: 16 (antibody, V domains shown)
VH: QVQLVQSGAELKKPGASVKMSCKASGYTFTSYWIHWVKQRPGQGLEWIGVIDPSDSYTRYNQKFKGRATLTVDTSASTAYMQLSSLTSEDSAVYYCTTWEVDYWGQGTTVTVSS
VL: DVVMTQSPLSLPVTLGQPASISCRSSQSLVHSDGNTYLHWYLQKPGQSPQLLIYKVSNRFSGVPDRFSGSGSGTDFTLKISRVEAEDVGVYFCSQSTHVPWTFGGGTKVEIK
The term Kd denotes the equilibrium constant for the complex coming apart. B1: the Kd in assay [1] is 1.83 nM. Further, the “Functional restoration 3-hit TBI” value in assay [2] is reported as 1.5. The “elimination of cis P-tau in neurons under hypoxic conditions (images)” value (“elimination of cis P-tau in neurons” below) in assay [3] is given as “elimination of cis P-tau”.

B2: HT2: humanized cis-pThr231-tau mAb; heavy chain variable domain SEQ ID NO: 26, light chain variable domain SEQ ID NO: 16 (antibody, V domains shown)
VH: B1 VH with L11V, Q82E, T87R, S91T, T109L
VL: B1 VL
On to B2, for which, in assay [1], the dissociation constant (Kd) amounted to 1.62 nM. Moreover, in assay [2], the “Functional restoration 3-hit TBI” value was determined as 1.4. In addition, the “Functional restoration 7-hit TBI” value in assay [4] was determined as 1.7. In assay [3], the “elimination of cis P-tau in neurons” value was “elimination of cis P-tau” and the “rank in cis P-tau elimination assay (FIG. 4)” value is on record as “top four performing variants”.

B3: HT3: humanized cis-pThr231-tau mAb; heavy chain variable domain SEQ ID NO: 27, light chain variable domain SEQ ID NO: 16 (antibody, V domains shown)
VH: B1 VH with L11V, M20V, K38R, A68V, Q82E, T87R, S91T, T109L
VL: B1 VL
As for B3, the dissociation constant (Kd) in assay [1] worked out at 3.51 nM. Moreover, the “Functional restoration 3-hit TBI” value in assay [2] is 1.7. Also, in assay [4], the “Functional restoration 7-hit TBI” value amounted to 2.0. The “elimination of cis P-tau in neurons” value in assay [3] was “elimination of cis P-tau”.

B4: HT10: humanized cis-pThr231-tau mAb; heavy chain variable domain SEQ ID NO: 26, light chain variable domain SEQ ID NO: 19 (antibody, V domains shown)
VH: B1 VH with L11V, Q82E, T87R, S91T, T109L
VL: B1 VL with F92Y
B4: the dissociation constant Kd in assay [1] was found to be 1.77 nM. Also, the “Functional restoration 3-hit TBI” value in assay [2] is 1.2. Also, the “Functional restoration 7-hit TBI” value in assay [4] came out at 1.3. The VCID-like behavioral changes entry in assay [5] (1 month after BCAS surgery) and in assay [5] (setting [7]) was “effective in preventing VCID-like behavioral changes” each time. Further, the “elimination of cis P-tau in neurons” value in assay [3] is recorded as “elimination of cis P-tau”. Also, the “rank in cis P-tau elimination assay (FIG. 4)” value in assay [3] is “top four performing variants”. Besides, in assay [6], the “detection of cis P-tau in CSF of live TBI patients” value (from here on “detection of cis P-tau”) is on record as “robust detection of cis P-tau as early as three days after TBI”.

B5: HT8: humanized cis-pThr231-tau mAb; heavy chain variable domain SEQ ID NO: 28, light chain variable domain SEQ ID NO: 18 (antibody, V domains shown)
VH: B1 VH with L11V, M20V, K38R, A68V, L70I, V72R, Q82E, T87R, S91T, T109L
VL: B1 VL with F60D
For the molecule B5, in assay [1], the Kd was found to be 7.68 nM. The “Functional restoration 7-hit TBI” value in assay [4] was 1.4. In assay [3], the “elimination of cis P-tau in neurons” value is given as “elimination of cis P-tau” and the “rank in cis P-tau elimination assay (FIG. 4)” value was “top four performing variants”. Also, the “detection of cis P-tau” value in assay [6] is “robust detection of cis P-tau as early as three days after TBI”.

B6: HT18: humanized cis-pThr231-tau mAb; heavy chain variable domain SEQ ID NO: 29, light chain variable domain SEQ ID NO: 20 (antibody, V domains shown)
VH: QVQLVQSGAEVKKPGSSVKVSCKASGYTFTSYWIHWVRQAPGQGLEWMGVIDPSDSYTRYNQKFKGRVTITRDTSMSTAYTELSSLRSEDTAVYYCTTWEVDYWGQGTLVTVSS
VL: DIQMTQSPSTLSASVGDRVTITCRSSQSLVHSDGNTYLHWYQQKPGKAPKLLIYKVSNRFSGVPSRFSGSGSGTEFTLTISSLQPDDFATYYCSQSTHVPWTFGQGTKLEIK
On to B6, for which the dissociation constant (Kd) in assay [1] amounted to 1.91 nM. For the same molecule, the “Functional restoration 3-hit TBI” value in assay [2] came to 1.0. Further, in assay [4], the “Functional restoration 7-hit TBI” value is 1.1. Besides, in assay [5] (1 month after BCAS surgery), the VCID-like behavioral changes entry is “effective in preventing VCID-like behavioral changes”. The VCID-like behavioral changes entry in assay [5] (setting [7]) is recorded as “effective in preventing VCID-like behavioral changes”. Also, in assay [3], the “elimination of cis P-tau in neurons” value is on record as “elimination of cis P-tau” and the “rank in cis P-tau elimination assay (FIG. 4)” value is “top four performing variants”. In addition, the “detection of cis P-tau” value in assay [6] is reported as “robust detection of cis P-tau as early as three days after TBI”.
